Patent US20140087995A1 (published 2014)
Numbered stars: 1 amine (or outer) side, 2 acyl side, 3 side chain; on linkers, the order of the positions; unused ones are H or OH. Bridge positions count the residues as written; N and C are the ends. Side chains are listed from the residue outwards. Ends that are not written are not given here. * marks the point of attachment. C20 diacid = O=C(O)CCCCCCCCCCCCCCCCCCC(=O)*; γGlu = O=C(O)[C@H](CCC(=O)[*:2])N[*:1]

T1: rat amylin receptor (rat calcitonin receptor + rat RAMP 3) (rat, UniProt P32214 25-516; Q9JJ73 23-147)
T1 construct: whole, on cells; Membranes of transiently transfected BHK tk'ts 13 cells (Assay VI); also called rAmylin-R; rat amylin 3(a) receptor
T1 sequence (looked up) 1: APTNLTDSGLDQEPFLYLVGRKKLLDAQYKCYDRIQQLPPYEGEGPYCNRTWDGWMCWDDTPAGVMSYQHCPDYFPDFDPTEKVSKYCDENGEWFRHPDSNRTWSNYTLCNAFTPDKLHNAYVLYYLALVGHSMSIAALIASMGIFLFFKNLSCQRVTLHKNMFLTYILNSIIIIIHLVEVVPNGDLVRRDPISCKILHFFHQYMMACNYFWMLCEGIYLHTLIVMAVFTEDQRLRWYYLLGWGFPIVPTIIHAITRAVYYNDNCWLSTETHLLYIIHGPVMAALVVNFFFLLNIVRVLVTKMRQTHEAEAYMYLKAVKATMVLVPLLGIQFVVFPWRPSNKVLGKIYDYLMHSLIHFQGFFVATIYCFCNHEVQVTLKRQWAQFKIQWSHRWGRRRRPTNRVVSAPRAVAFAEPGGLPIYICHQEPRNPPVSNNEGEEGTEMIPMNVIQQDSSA
T1 sequence (looked up) 2: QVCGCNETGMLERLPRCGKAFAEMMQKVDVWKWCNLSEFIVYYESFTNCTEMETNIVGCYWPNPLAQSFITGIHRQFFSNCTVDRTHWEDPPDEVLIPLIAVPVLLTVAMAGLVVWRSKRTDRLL

T2: rat calcitonin receptor (rat, UniProt P32214 25-516)
T2 construct: whole, on cells; Membranes of transiently transfected BHK tk'ts 13 cells (Assay VIII); also called rCTR
T2 sequence (looked up): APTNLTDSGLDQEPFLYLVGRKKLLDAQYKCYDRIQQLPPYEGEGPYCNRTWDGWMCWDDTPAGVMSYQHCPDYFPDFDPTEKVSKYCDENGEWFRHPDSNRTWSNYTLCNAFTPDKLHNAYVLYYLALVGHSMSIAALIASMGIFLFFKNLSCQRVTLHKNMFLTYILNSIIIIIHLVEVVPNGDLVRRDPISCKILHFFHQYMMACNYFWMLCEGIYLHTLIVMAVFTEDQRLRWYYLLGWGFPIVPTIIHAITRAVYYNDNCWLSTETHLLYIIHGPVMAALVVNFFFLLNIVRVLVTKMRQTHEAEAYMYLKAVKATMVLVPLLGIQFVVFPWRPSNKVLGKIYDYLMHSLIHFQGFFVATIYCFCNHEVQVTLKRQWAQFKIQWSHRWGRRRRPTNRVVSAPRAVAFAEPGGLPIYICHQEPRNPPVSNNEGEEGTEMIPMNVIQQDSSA

T3: human calcitonin receptor (human, UniProt P30988 25-474)
T3 construct: whole, on cells; Membranes of a stably transfected BHK cell line (Assay VII); also called hCTR; hCT
T3 sequence (looked up): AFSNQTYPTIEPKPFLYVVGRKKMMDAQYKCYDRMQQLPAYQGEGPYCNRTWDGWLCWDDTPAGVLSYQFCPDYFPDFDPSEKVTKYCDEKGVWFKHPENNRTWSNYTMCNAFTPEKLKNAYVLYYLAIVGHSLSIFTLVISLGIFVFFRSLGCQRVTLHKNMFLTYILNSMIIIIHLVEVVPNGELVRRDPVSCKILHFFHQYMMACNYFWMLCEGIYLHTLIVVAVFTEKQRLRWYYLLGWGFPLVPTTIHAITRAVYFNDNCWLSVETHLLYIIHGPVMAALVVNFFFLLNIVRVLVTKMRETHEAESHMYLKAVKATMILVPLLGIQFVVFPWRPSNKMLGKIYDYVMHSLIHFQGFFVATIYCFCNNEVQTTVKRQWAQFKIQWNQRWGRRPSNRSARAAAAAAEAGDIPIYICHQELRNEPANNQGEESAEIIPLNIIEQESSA


Assays:
[1] = biological target: T1, rat amylin receptor (rat calcitonin …); test: SPA competition with 125I-rat amylin, membranes of BHK cells with rat calcitonin receptor + rat RAMP3 (Assay VI)
rat calcitonin receptor [2] = biological target: T2, rat calcitonin receptor; test: ratio IC50 rat calcitonin receptor / IC50 rat amylin receptor (reference)
[3] = biological target: T3, human calcitonin receptor; test: ratio IC50 human calcitonin receptor / IC50 human amylin receptor (reference)
Outline: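 IC₅₀ values were derived by one-site competition analysis of SPA counts. Cell membranes (35 ng/μL) with SPA beads were incubated with test compounds for 120 min at 25° C in Hepes buffer, pH 7.4, containing CaCl2, MgCl₂, OA and Tween20.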

rat calcitonin receptor [4] = biological target: T2, rat calcitonin receptor; test: SPA competition with 125I-calcitonin, membranes of BHK cells with rat calcitonin receptor (Assay VIII)

Binder | IC50 [1] [nM] | Ratio rCT/rAmylin binding (rat calcitonin receptor [2]) | Ratio hCT/hAmylin binding [3] | IC50 (rat calcitonin receptor [4]) [nM]
K([γGlu-C20 diacid])CNTATCATQRLAEFLRHSSPNFGAIPSSTNVGPNTP-NH2 (disulfide 2-7; N-terminus assumed; SMILES CC[C@H](C)[C@H](NC(=O)[C@H](C)NC(=O)CNC(=O)[C@H](Cc1ccccc1)NC(=O)[C@H](CC(N)=O)NC(=O)[C@@H]1CCCN1C(=O)[C@H](CO)NC(=O)[C@H](CO)NC(=O)[C@H](Cc1c[nH]cn1)NC(=O)[C@H](CCCNC(=N)N)NC(=O)[C@H](CC(C)C)NC(=O)[C@H](Cc1ccccc1)NC(=O)[C@H](CCC(=O)O)NC(=O)[C@H](C)NC(=O)[C@H](CC(C)C)NC(=O)[C@H](CCCNC(=N)N)NC(=O)[C@H](CCC(N)=O)NC(=O)[C@@H](NC(=O)[C@H](C)NC(=O)[C@@H]1CSSC[C@H](NC(=O)[C@@H](N)CCCCNC(=O)CC[C@H](NC(=O)CCCCCCCCCCCCCCCCCCC(=O)O)C(=O)O)C(=O)N[C@@H](CC(N)=O)C(=O)N[C@@H]([C@@H](C)O)C(=O)N[C@@H](C)C(=O)N[C@@H]([C@@H](C)O)C(=O)N1)[C@@H](C)O)C(=O)N1CCC[C@H]1C(=O)N[C@@H](CO)C(=O)N[C@@H](CO)C(=O)N[C@H](C(=O)N[C@@H](CC(N)=O)C(=O)N[C@H](C(=O)NCC(=O)N1CCC[C@H]1C(=O)N[C@@H](CC(N)=O)C(=O)N[C@H](C(=O)N1CCC[C@H]1C(N)=O)[C@@H](C)O)C(C)C)[C@@H](C)O) | 0.188 | 1.1 | 0.5 | 0.206
K([γGlu-C20 diacid])CNTATCATQRLAHFLRHSSPNFGAIPSSTNVGPNTP-NH2 (disulfide 2-7; N-terminus assumed; SMILES CC[C@H](C)[C@H](NC(=O)[C@H](C)NC(=O)CNC(=O)[C@H](Cc1ccccc1)NC(=O)[C@H](CC(N)=O)NC(=O)[C@@H]1CCCN1C(=O)[C@H](CO)NC(=O)[C@H](CO)NC(=O)[C@H](Cc1c[nH]cn1)NC(=O)[C@H](CCCNC(=N)N)NC(=O)[C@H](CC(C)C)NC(=O)[C@H](Cc1ccccc1)NC(=O)[C@H](Cc1c[nH]cn1)NC(=O)[C@H](C)NC(=O)[C@H](CC(C)C)NC(=O)[C@H](CCCNC(=N)N)NC(=O)[C@H](CCC(N)=O)NC(=O)[C@@H](NC(=O)[C@H](C)NC(=O)[C@@H]1CSSC[C@H](NC(=O)[C@@H](N)CCCCNC(=O)CC[C@H](NC(=O)CCCCCCCCCCCCCCCCCCC(=O)O)C(=O)O)C(=O)N[C@@H](CC(N)=O)C(=O)N[C@@H]([C@@H](C)O)C(=O)N[C@@H](C)C(=O)N[C@@H]([C@@H](C)O)C(=O)N1)[C@@H](C)O)C(=O)N1CCC[C@H]1C(=O)N[C@@H](CO)C(=O)N[C@@H](CO)C(=O)N[C@H](C(=O)N[C@@H](CC(N)=O)C(=O)N[C@H](C(=O)NCC(=O)N1CCC[C@H]1C(=O)N[C@@H](CC(N)=O)C(=O)N[C@H](C(=O)N1CCC[C@H]1C(N)=O)[C@@H](C)O)C(C)C)[C@@H](C)O) | 0.125 | 3 | 1.2 | 0.371
K([γGlu-C20 diacid])CNTATCATQRLAHFLRHSSPNFGAIPSSTPVGPNTY-NH2 (disulfide 2-7; N-terminus assumed; SMILES CC[C@H](C)[C@H](NC(=O)[C@H](C)NC(=O)CNC(=O)[C@H](Cc1ccccc1)NC(=O)[C@H](CC(N)=O)NC(=O)[C@@H]1CCCN1C(=O)[C@H](CO)NC(=O)[C@H](CO)NC(=O)[C@H](Cc1c[nH]cn1)NC(=O)[C@H](CCCNC(=N)N)NC(=O)[C@H](CC(C)C)NC(=O)[C@H](Cc1ccccc1)NC(=O)[C@H](Cc1c[nH]cn1)NC(=O)[C@H](C)NC(=O)[C@H](CC(C)C)NC(=O)[C@H](CCCNC(=N)N)NC(=O)[C@H](CCC(N)=O)NC(=O)[C@@H](NC(=O)[C@H](C)NC(=O)[C@@H]1CSSC[C@H](NC(=O)[C@@H](N)CCCCNC(=O)CC[C@H](NC(=O)CCCCCCCCCCCCCCCCCCC(=O)O)C(=O)O)C(=O)N[C@@H](CC(N)=O)C(=O)N[C@@H]([C@@H](C)O)C(=O)N[C@@H](C)C(=O)N[C@@H]([C@@H](C)O)C(=O)N1)[C@@H](C)O)C(=O)N1CCC[C@H]1C(=O)N[C@@H](CO)C(=O)N[C@@H](CO)C(=O)N[C@H](C(=O)N1CCC[C@H]1C(=O)N[C@H](C(=O)NCC(=O)N1CCC[C@H]1C(=O)N[C@@H](CC(N)=O)C(=O)N[C@H](C(=O)N[C@@H](Cc1ccc(O)cc1)C(N)=O)[C@@H](C)O)C(C)C)[C@@H](C)O) | 0.125 | 72.4 | 24.8 | 9.05
K([γGlu-C20 diacid])CNTATCATQRLAHFLRHSSPNFGAIPSSTNVGRNTY-NH2 (disulfide 2-7; N-terminus assumed; SMILES CC[C@H](C)[C@H](NC(=O)[C@H](C)NC(=O)CNC(=O)[C@H](Cc1ccccc1)NC(=O)[C@H](CC(N)=O)NC(=O)[C@@H]1CCCN1C(=O)[C@H](CO)NC(=O)[C@H](CO)NC(=O)[C@H](Cc1c[nH]cn1)NC(=O)[C@H](CCCNC(=N)N)NC(=O)[C@H](CC(C)C)NC(=O)[C@H](Cc1ccccc1)NC(=O)[C@H](Cc1c[nH]cn1)NC(=O)[C@H](C)NC(=O)[C@H](CC(C)C)NC(=O)[C@H](CCCNC(=N)N)NC(=O)[C@H](CCC(N)=O)NC(=O)[C@@H](NC(=O)[C@H](C)NC(=O)[C@@H]1CSSC[C@H](NC(=O)[C@@H](N)CCCCNC(=O)CC[C@H](NC(=O)CCCCCCCCCCCCCCCCCCC(=O)O)C(=O)O)C(=O)N[C@@H](CC(N)=O)C(=O)N[C@@H]([C@@H](C)O)C(=O)N[C@@H](C)C(=O)N[C@@H]([C@@H](C)O)C(=O)N1)[C@@H](C)O)C(=O)N1CCC[C@H]1C(=O)N[C@@H](CO)C(=O)N[C@@H](CO)C(=O)N[C@H](C(=O)N[C@@H](CC(N)=O)C(=O)N[C@H](C(=O)NCC(=O)N[C@@H](CCCNC(=N)N)C(=O)N[C@@H](CC(N)=O)C(=O)N[C@H](C(=O)N[C@@H](Cc1ccc(O)cc1)C(N)=O)[C@@H](C)O)C(C)C)[C@@H](C)O, also called compound 85) | 3.14 | 46.5 | 91.8 | 146
K([γGlu-γGlu-C20 diacid])CNTATCATQRLANFLRHSSPNFGAIPSSTNVGHNTY-NH2 (disulfide 2-7; N-terminus assumed; SMILES CC[C@H](C)[C@H](NC(=O)[C@H](C)NC(=O)CNC(=O)[C@H](Cc1ccccc1)NC(=O)[C@H](CC(N)=O)NC(=O)[C@@H]1CCCN1C(=O)[C@H](CO)NC(=O)[C@H](CO)NC(=O)[C@H](Cc1c[nH]cn1)NC(=O)[C@H](CCCNC(=N)N)NC(=O)[C@H](CC(C)C)NC(=O)[C@H](Cc1ccccc1)NC(=O)[C@H](CC(N)=O)NC(=O)[C@H](C)NC(=O)[C@H](CC(C)C)NC(=O)[C@H](CCCNC(=N)N)NC(=O)[C@H](CCC(N)=O)NC(=O)[C@@H](NC(=O)[C@H](C)NC(=O)[C@@H]1CSSC[C@H](NC(=O)[C@@H](N)CCCCNC(=O)CC[C@H](NC(=O)CC[C@H](NC(=O)CCCCCCCCCCCCCCCCCCC(=O)O)C(=O)O)C(=O)O)C(=O)N[C@@H](CC(N)=O)C(=O)N[C@@H]([C@@H](C)O)C(=O)N[C@@H](C)C(=O)N[C@@H]([C@@H](C)O)C(=O)N1)[C@@H](C)O)C(=O)N1CCC[C@H]1C(=O)N[C@@H](CO)C(=O)N[C@@H](CO)C(=O)N[C@H](C(=O)N[C@@H](CC(N)=O)C(=O)N[C@H](C(=O)NCC(=O)N[C@@H](Cc1c[nH]cn1)C(=O)N[C@@H](CC(N)=O)C(=O)N[C@H](C(=O)N[C@@H](Cc1ccc(O)cc1)C(N)=O)[C@@H](C)O)C(C)C)[C@@H](C)O, also called compound 86) | 2.8 | 126 | 159 | 352
